In series [1] the test system is 933W repressor (cI) (bacteriophage 933W (lambdoid prophage of E. coli O157:H7 EDL933)). Description: competition EMSA.
The test system is the same in series [2]. Put plainly: EMSA.
The subject of series [3] is 933W repressor K46A (bacteriophage 933W (lambdoid prophage of E. coli O157:H7 EDL933)). Description: EMSA.
Series [4] relates to 933W repressor S41A (bacteriophage 933W (lambdoid prophage of E. coli O157:H7 EDL933)). Description: EMSA.
For series [5], the system named is 933W repressor (cI) (bacteriophage 933W (lambdoid prophage of E. coli O157:H7 EDL933)). Description: EMSA (direct and competition).
[6] abbreviates: scale: fold affinity vs S41A on consensus.

For the substance consensus 1A (symmetric C-G to A-T), in series [1], the binding signal (fold change in affinity vs consensus) was less than 2.

Substance consensus 7'A (C-G to A-T at 7' only) returned a binding signal (fold higher affinity than consensus) in series [1] greater than 4.

Consider consensus 3T (symmetric A-T to T-A), for which, in series [1], the binding signal (fold higher affinity than consensus) was greater than 3.

Take consensus 4 G-C in one half-site: the binding signal (fold lower affinity than consensus) in series [2] was greater than 5.

For the substance 933W OR1, in series [2], the binding signal (fold higher affinity than consensus) stood at 10.

For the substance nonspecific DNA (NS), the Kd in series [3] and in series [1] was 6.1 µM throughout.

Regarding consensus 4 G-5meC in one half-site, the binding signal (fold affinity vs consensus (identical)) in series [2] (5-methylcytosine paired with G at position 4) turned out to be 1.

Take consensus 8G (central A-T to G-C): the binding signal (fold lower affinity than consensus) in series [1] turned out to be 3.

The substance consensus 2A (symmetric, G-C to A-T) had a binding signal in series [4] (setting [6]) of 1. The same substance registered a binding signal (fold lower affinity than consensus) in series [1] greater than 6.

In the case of 933W consensus operator, the Kd was 6.1 µM in series [3] and 0.0048 µM in series [5]. For the same substance, the binding signal in series [4] (scale: fold lower affinity than wild-type repressor) was greater than 10.

As to consensus 6C (symmetric T-A to C-G), the binding signal (fold higher affinity than consensus) in series [1] was greater than 2.5.

consensus 3G (symmetric A-T to G-C) had a binding signal (fold lower affinity than consensus) in series [1] of 2.

With consensus 5 C-C7G in one half-site, the binding signal (fold lower affinity than consensus) in series [2] (7-deazaguanine replaces G at position 5) was greater than 5.

consensus 3C (symmetric A-T to C-G) had a binding signal (fold lower affinity than consensus) in series [1] greater than 6.

As to consensus 2T (symmetric, G-C to T-A), in series [4] (setting [6]), the binding signal is 1. For the same substance, the binding signal (fold lower affinity than consensus) in series [1] was greater than 6.

Source of the values: article PMC3317979.
